# From US20050153366, “Protein-protein interaction antagonist screening libraries based upon 1,4-disubstituted naphthalenes and related scaffolds” (published 2005)
# T1: PBX1 (residues 233-319) (mouse/human, UniProt P40424 P40424:233-319)
# T1 sequence: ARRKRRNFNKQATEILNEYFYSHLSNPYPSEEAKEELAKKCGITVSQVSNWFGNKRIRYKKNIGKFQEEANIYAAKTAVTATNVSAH
# Target: T1, PBX1 (residues 233-319)
# Experiment: EMSA; binary PBX1/DNA complex; inhibited by compound 31, not by compound 15
# Conditions: label: 32P (Klenow fill-in with alpha-32P-dCTP); annealed with overhangs extended by Klenow
binder,measurement,value
HOXPBX-CT probe (dsDNA) DNA 1: CTCTCCTTTTGATTGATTAA DNA 2: AGAGCTTAATCAATCAAAAGG,binding result,binds
